Bridge positions count the residues as written; N and C are the ends. Ends that are not written are not given here.
Key:
[1] = biological target: TNF receptor (immobilized, control); test: SPR (Biacore 3000), peptide injected over immobilized TNF receptor (control)
[2] = biological target: T1, ErbB3 extracellular domain (recombinant, soluble) (UniProt P21860 20-643, limits assumed); test: SPR (Biacore 3000), peptide injected over immobilized receptor extracellular domain
T1 construct: extracellular domain; also called ectodomain of erbB3
T1 sequence (P21860 20-643 limits assumed): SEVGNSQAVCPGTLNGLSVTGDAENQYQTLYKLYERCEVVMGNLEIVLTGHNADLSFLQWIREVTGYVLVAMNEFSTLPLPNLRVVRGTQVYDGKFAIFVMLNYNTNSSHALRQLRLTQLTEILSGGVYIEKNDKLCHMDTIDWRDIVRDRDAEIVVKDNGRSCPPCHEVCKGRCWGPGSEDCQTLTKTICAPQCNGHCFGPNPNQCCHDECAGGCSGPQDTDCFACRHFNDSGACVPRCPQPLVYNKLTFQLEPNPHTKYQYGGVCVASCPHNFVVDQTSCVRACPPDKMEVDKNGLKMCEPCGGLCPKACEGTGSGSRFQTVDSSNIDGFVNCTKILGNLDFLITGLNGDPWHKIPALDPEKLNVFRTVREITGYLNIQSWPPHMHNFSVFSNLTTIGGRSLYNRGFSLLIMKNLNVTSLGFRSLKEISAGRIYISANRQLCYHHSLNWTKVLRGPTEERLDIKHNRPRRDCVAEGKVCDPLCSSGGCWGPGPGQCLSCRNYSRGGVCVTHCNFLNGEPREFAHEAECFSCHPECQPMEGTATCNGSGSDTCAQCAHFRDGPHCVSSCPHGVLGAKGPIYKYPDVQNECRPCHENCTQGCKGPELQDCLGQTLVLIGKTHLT

[3] = biological target: T2, ErbB1 extracellular domain (recombinant, soluble) (UniProt P00533 25-645, limits assumed); test: as above
T2 construct: extracellular domain; also called erbB1 ectodomain; EGFr

[4] = biological target: T3, ErbB2 extracellular domain (recombinant) (UniProt P04626 23-652, limits assumed); test: as above
T3 construct: extracellular domain; also called whole ectodomain of erbB2; full-size erbB2 ectodomain

[5] = biological target: T2, ErbB1 extracellular domain …; test: SPR; peptide 10 µM preinjected over immobilized ErbB1, then ErbB3 (300 nM) with HRGβ1 (5 µM); competitor: erbB3-HRGβ1
[6] = biological target: T3, ErbB2 extracellular domain (recombinant); test: SPR; peptide 10 µM preinjected over immobilized ErbB2, then ErbB3 (300 nM) with HRGβ1 (5 µM); competitor: erbB3-HRGβ1
[7] = biological target: T1, ErbB3 extracellular domain …; test: SPR; peptide 10 µM preinjected over immobilized ErbB3, then ErbB3 (300 nM) with HRGβ1 (5 µM); competitor: erbB3-HRGβ1
[8] = biological target: T4, erbB2 receptor, native full-length, on transfected 32D cells (32D-E2/E4 and 32D-E2/E3) (UniProt P04626 23-1255, limits assumed); test: inhibition of heregulin-induced erbB2-erbB4 dimerization on 32D-E2/E4 cells, chemical cross-linking and immunoblot, dose dependence; 32D-E2/E4 cells; heregulin-induced erbB2-erbB4 heteromerization
T4 construct: whole, on cells

[9] = biological target: TNF receptor (immobilized, control); test: SPR (Biacore 3000), control peptide injected over immobilized TNF receptor (control)
[10] = biological target: T1, ErbB3 extracellular domain …; test: SPR (Biacore 3000), control peptide injected over immobilized receptor extracellular domain
[11] = biological target: T2, ErbB1 extracellular domain …; test: as above
[12] = biological target: T3, ErbB2 extracellular domain (recombinant); test: as above
[13] = biological target: T5, erbB2-SbdIV (recombinantly expressed subdomain IV of erbB2, GST fusion protein) (UniProt P04626 511-652); test: SPR (Biacore), peptide over immobilized erbB2-SbdIV
T5 construct: domain: subdomain IV; Expressed in E. coli BL-21 (DE3) and eluted from glutathione sepharose; no removal of GST is told; also called erbB2-Sbd W; not shown: glutathione S-transferase of the pGEX-5X-3 vector (N-terminal fusion partner)

[14] = biological target: T2, ErbB1 extracellular domain …; test: SPR (Biacore), global fit to the 1:1 Langmuir model; receptor taken as erbB1 by the KD of 0.21 µM

| Kd [1] | Kd [2] | Kd [3] | Kd [4] | Percent Inhibition [5] | Percent Inhibition [6] | Percent Inhibition [7] | IC50 [8] | Kd [9] | Kd [10] | Kd [11] | Kd [12] | Kd [13] | koff [13] | kon [13] | koff [14] | kon [14] | Binder |
| --- | --- | --- | --- | --- | --- | --- | --- | --- | --- | --- | --- | --- | --- | --- | --- | --- | --- |
| > 1000 µM | 0.394 µM | 0.583 µM | 0.639 µM | 60.3% | 54.2% | 72.8% |  |  |  |  |  |  |  |  |  |  | YCFIFKYADPDCY (disulfide 2-12 (inferred)) [B4-S22-AFD (derived from erbB4)] |
| > 1000 µM | 0.429 µM | 0.407 µM | 0.302 µM | 78.4% | 82.5% | 61.7% | 0.8 µM |  |  |  |  |  |  |  |  |  | YCFPDEEGACY (disulfide 2-10 (inferred)) [B2-S22-AFA (derived from erbB2)] |
|  |  |  |  |  |  |  |  | > 1000 µM | > 1000 µM | > 1000 µM | > 1000 µM |  |  |  |  |  | FCYIGEVEDQCY (disulfide 2-11 (inferred), also called control peptide) [CD4-G (CD4 receptor-derived cyclic peptide, negative control)] |
| > 1000 µM | 1.07 µM | 0.472 µM | 0.549 µM | 69% | 58.1% | 32.4% |  |  |  |  |  |  |  |  |  |  | YCPIYKYPDVQCY (disulfide 2-12 (inferred)) [B3-S22-APQ (derived from erbB3)] |
| > 1000 µM | 1.4 µM | 0.21 µM | 1.53 µM | 80.3% | 51.1% | 42.7% |  |  |  |  |  | 1.89 µM | 0.00307 s⁻¹ | 1620 M⁻¹ s⁻¹ | 0.000685 s⁻¹ | 3240 M⁻¹ s⁻¹ | YCPIWKFPDEECY (disulfide 2-12 (inferred)) [B2-S22-APE (derived from erbB2)] |
| > 1000 µM | 0.288 µM | 0.449 µM | 0.371 µM | 65.2% | 71.4% | 75.1% |  |  |  |  |  |  |  |  |  |  | YCLVWKYADAGCY (disulfide 2-12 (inferred)) [B1-S22-ALG (derived from erbB1)] |

Source: patent US20100120688A1 (University of Pennsylvania, published 2010)
